Consider 72 sequences from the supplement of paper PMC10567573.

± gives the standard deviation.

This series in a line: protein stability index of a GFP-peptide fusion (GPS, HEK-293T) (PSI 1-6); higher = more stable.
Setting [1] is: treatment: DMSO, c terminus: a fixed tail appended.
The mark [2] stands for this setting: treatment: MLN4924 1 uM, 8 h, c terminus: a fixed tail appended.
The mark [3] stands for this setting: treatment: DMSO, c terminus: native.
Setting [4] is: treatment: MLN4924 1 uM, 8 h, c terminus: native.
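Also: 24-mer peptide tiles fused after GFP, lentivirally expressed, FACS-sorted into six equal bins by GFP/DsRed ratio, decoded by Illumina sequencing, PSI is the read-weighted mean bin number.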

Turning to TSITLTASRVSKVNDKRRKKSGEK [KMT2E], the protein stability index reads like this: under setting [1], 4.04 ± 0.28; under setting [2], 4.47 ± 0.17.

For TSLQGLTGTPLVAGSPIRHENAVQ [ISL2], the protein stability index amounted to 4.31 ± 0.33 under setting [1] and 4.36 ± 0.16 under setting [2].

In the case of TSRFGSQCMQPNNIMGIENICELA [NR2F2], the protein stability index was found to be 2.88 ± 0.28 under setting [1] and 2.74 ± 0.35 under setting [2].

TSRNLIGGADIIVIKYNVNDKFSF [RHOBTB3] returned a protein stability index under setting [1] of 2.83 ± 1.2 and a protein stability index under setting [2] of 2.68 ± 1.6.

As to TSSGLATASFRTSKYLLEEWFQNC [TEKT4], the protein stability index was found to be 2.68 ± 0.21 under setting [1] and 2.7 ± 0.14 under setting [2].

For the sequence TTGPNPFTTLTDRELEEYRREVER [ADD1], the protein stability index amounted to 5.08 ± 0.18 under setting [1] and 5.16 ± 0.21 under setting [2].

For TTLKGHEGSVACLWWDPIQRLLFS [WDFY1], the protein stability index is, setting by setting: under setting [1], 2.08 ± 0.27; under setting [2], 2.35 ± 0.39.

In the case of TTREIRRQEAIYEMSRGEQDLIED [NET1], the protein stability index amounted to 5.25 ± 0.16 under setting [1] and 5.13 ± 0.17 under setting [2].

As to TTTRRIVDGKVVSETNDTKVLRH [KRT18], the protein stability index runs as follows: under setting [3], 5.19 ± 0.24; under setting [4], 5.28 ± 0.3.

TVPEILVHNIVIFMRTSVKISYIG [TMEM106C]: the protein stability index is, setting by setting: under setting [1], 3.01 ± 0.38; under setting [2], 3.11 ± 0.29.

Turning to TVTLTVAVADSIPQVLADLGSFES [PCDHGA10], the protein stability index is, setting by setting: under setting [1], 2.28 ± 0.32; under setting [2], 2.11 ± 0.093.

Turning to TWSNQTQNIQSWSNHSWNTQTWCT [NANOGP8], the protein stability index runs as follows: under setting [1], 2.27 ± 0.15; under setting [2], 2.27 ± 0.26.

For TYGQPKQAPPADFIPAHVAFDKKV [EFHC1], the protein stability index by setting is: under setting [1], 3.81 ± 0.34; under setting [2], 4.16 ± 0.061.

For the sequence TYGWTANMERIMKAQALRDNSTMG [HSP90AB1], the protein stability index is 2.87 ± 0.24 under setting [1] and 3.31 ± 0.3 under setting [2].

Consider TYPAHQNRVSAIIFSLATEWVIST [WDFY1], for which the protein stability index reads like this: under setting [1], 3.57 ± 0.89; under setting [2], 2.92 ± 1.1.

Take VAFRGLKGKKLYPVVSAVWGHCEI [SPSB1]: the protein stability index reads like this: under setting [1], 2.62 ± 0.13; under setting [2], 3.16 ± 0.071.

VAHCHQSAIVLGDLKLRKFVFSTE [TRIB1] showed a protein stability index under setting [1] of 2.25 ± 0.36 and a protein stability index under setting [2] of 2.36 ± 0.63.

For VASFKFDAGEVSYLPRDFSTYRPL [MYORG], the protein stability index under setting [1] came out at 2.28 ± 0.37 and the protein stability index under setting [2] was determined as 2.54 ± 0.17.

In the case of VCDESVRKLSSAVRSGIVEYLSLV [PRIM1], the protein stability index reads like this: under setting [1], 2.34 ± 0.83; under setting [2], 2.1 ± 0.3.

For the sequence VDDVSVSLRLWDTFGDHHKDRRFA [RHOBTB2], the protein stability index was 3.28 ± 0.23 under setting [1] and 3.19 ± 0.28 under setting [2].

For the sequence VDICHMLVQFCRLGSPRSRGCLW [EHMT1], the protein stability index by setting is: under setting [3], 2.67 ± 0.14; under setting [4], 2.71 ± 0.66.

In the case of VDLVQKYLEKYYNLKNDGRQVEKR [MMP1], the protein stability index by setting is: under setting [1], 2.42 ± 0.25; under setting [2], 2.68 ± 0.36.

With VDQMNRIVEVLGIPPAAMLDQAPK [DYRK1B], the protein stability index under setting [1] amounted to 3.62 ± 0.25 and the protein stability index under setting [2] was 3.52 ± 0.15.

Regarding VEAKSWTASSSYGKGEGPIWLDNL [LOXL2], the protein stability index is, setting by setting: under setting [1], 2.42 ± 0.31; under setting [2], 2.61 ± 0.74.

For the sequence VEEGDSRFLANEVLQENYTHLPKA [WEE1], the protein stability index was determined as 4.74 ± 0.2 under setting [1] and 4.81 ± 0.13 under setting [2].

As for VFFIYLYQRWIYRVDPTRVNEFGM [CLPTM1], the protein stability index stood at 2.96 ± 0.49 under setting [1] and 2.69 ± 0.055 under setting [2].

Regarding VFPGARLLTIGDANGEIQRHAEQQ [CARM1], the protein stability index by setting is: under setting [1], 4.64 ± 0.16; under setting [2], 4.23 ± 0.2.

VFQEMLLHKFPYRMVPALPPKRML [SNX8]: the protein stability index came out at 2.12 ± 0.54 under setting [1] and 2.13 ± 0.22 under setting [2].

As for VFQTEQKNLFRLEMDMVVFRPEMK [N4BP2L1], the protein stability index by setting is: under setting [1], 2.02 ± 0.26; under setting [2], 2.16 ± 0.092.

Regarding VGDIVSFMHSFEEKYGRAHPVFYQ [FAF2], the protein stability index is, setting by setting: under setting [1], 2.04 ± 0.34; under setting [2], 2.17 ± 0.22.

Regarding VGEIVGIITRHNLTYEFLQARLRQ [CLCN6], the protein stability index came to 2.73 ± 0.64 under setting [1] and 2.67 ± 0.85 under setting [2].

For VGLRNTLTRIRKWIEHSKLREINF [GLT8D2], the protein stability index reads like this: under setting [1], 2.41 ± 0.3; under setting [2], 1.9 ± 0.31.

As for VGPRETEEKVRDLLWAKFTNSDTP [TOR1AIP2], the protein stability index by setting is: under setting [1], 4.14 ± 0.43; under setting [2], 4.1 ± 0.3.

As for VGRIANTYNLTEVDKYVNSFVLKN [KLHL13], the protein stability index reads like this: under setting [1], 2.64 ± 0.32; under setting [2], 2.85 ± 0.45.

Turning to VGSALHRESFTSRQKTSGPSVIQE [C10orf62], the protein stability index is 4.18 ± 0.15 under setting [1] and 4.46 ± 0.2 under setting [2].

VHETPAASKTVFFFFSSPGNNNGT [BTBD1]: the protein stability index is, setting by setting: under setting [1], 2.37 ± 0.3; under setting [2], 2.15 ± 0.31.

With VHPIIKRRQCRPEIRMWQTREKAK [PHTF1], the protein stability index by setting is: under setting [1], 3.15 ± 0.21; under setting [2], 3.32 ± 0.13.

VILISRISSVGGEAMFCDFPKINH [CFHR2] gave a protein stability index under setting [1] of 3.66 ± 1.3 and a protein stability index under setting [2] of 2.97 ± 0.21.

Turning to VILKNSQGEEVAQRSTVFKTTIPE [LMNB1], the protein stability index is 2.67 ± 0.34 under setting [1] and 2.84 ± 0.24 under setting [2].

Turning to VKDALFCSCLSDILRFIYSGAFQW [RHOBTB3], the protein stability index turned out to be 2.79 ± 0.36 under setting [1] and 3.31 ± 0.48 under setting [2].

Regarding VKDDELDAMLKEASGPINFTMFLN [MYL5], the protein stability index was 3.39 ± 0.082 under setting [1] and 3.5 ± 0.19 under setting [2].

As for VKYGLAATVWSSNVGRVHRVAKKL [ALDH8A1], the protein stability index by setting is: under setting [1], 2.48 ± 0.33; under setting [2], 2.43 ± 0.4.

Regarding VKYVGNMHGNEALGRELMLQLSEF [CPN1], the protein stability index runs as follows: under setting [1], 2.24 ± 0.2; under setting [2], 2.25 ± 0.39.

Consider VLLKTADPRYELPSRKYISTKAIP [ZBED1], for which the protein stability index under setting [1] was determined as 2.19 ± 0.37 and the protein stability index under setting [2] stood at 2.34 ± 0.62.

Take VLMLLVALLFTGIAVLGIVMLKRI [SCAMP3]: the protein stability index by setting is: under setting [1], 2.85 ± 0.63; under setting [2], 3.02 ± 0.73.

As for VNHYSEVADGLCCVLTTPCLTQST [SLA], the protein stability index under setting [1] is 2.77 ± 0.27 and the protein stability index under setting [2] stood at 2.53 ± 0.38.

Consider VNNNYEHRHTSHLGHAVLPSNARG [SPRY1], for which the protein stability index runs as follows: under setting [1], 3.96 ± 0.2; under setting [2], 4.03 ± 0.21.

As to VPAPEAFRDPIWSTWALYGRAVDQ [MYORG], the protein stability index by setting is: under setting [1], 2.66 ± 0.38; under setting [2], 2.61 ± 0.34.

For VPCYSKTQKLSKIETLRLAKNYIW [NEUROD6], the protein stability index by setting is: under setting [1], 2.43 ± 0.34; under setting [2], 2.81 ± 0.58.

In the case of VPSAVRCLQKRGSATSSSNTSLT [FSD1], the protein stability index runs as follows: under setting [3], 4.34 ± 0.13; under setting [4], 4.43 ± 0.082.

Sequence VPWNQVGMRDADYIAAFLHVLLPV [HDAC6] returned a protein stability index under setting [2] of 2.07 ± 1.5.

For VQDYSYFFFLRMDENYNLLPHGVN [CCDC3], the protein stability index worked out at 2.38 ± 0.48 under setting [1] and 2.48 ± 0.37 under setting [2].

For the sequence VQESQSERLQAAGTDSAGPKTVPS [ELOA2], the protein stability index runs as follows: under setting [1], 5.29 ± 0.38; under setting [2], 5.19 ± 0.35.

As for VSAQYLSEIEMAKAQRDYELKKAA [FLOT1], the protein stability index reads like this: under setting [1], 4.34 ± 0.22; under setting [2], 4.54 ± 0.14.

With VSCPKSEVRAKFKFSLLNAKREET [SPOPL], the protein stability index reads like this: under setting [1], 3.67 ± 0.3; under setting [2], 3.53 ± 0.19.

With VSPGPSRSFKEELLCAVCYDPFRD [TRIM35], the protein stability index runs as follows: under setting [1], 2.79 ± 0.21; under setting [2], 2.91 ± 0.27.

VSTQPAMMVNLRACSAPGGLVPSE [C2CD2L]: the protein stability index was found to be 3.43 ± 0.16 under setting [1] and 3.5 ± 0.14 under setting [2].

Regarding VTADDFVQTSVIGSNGYILNKPAL [EHMT1], the protein stability index under setting [1] was determined as 3.11 ± 0.26 and the protein stability index under setting [2] is 3.13 ± 0.25.

For the sequence VVFGLLLSYVMSGYRCFVCPVEYN [CDS2], the protein stability index was 3.55 ± 0.062 under setting [1] and 3.41 ± 0.31 under setting [2].

VVGDNAVGKTRLICARACNATLTQ [RHOBTB2]: the protein stability index runs as follows: under setting [1], 2.63 ± 0.17; under setting [2], 2.67 ± 0.14.

VVNESTVCLMGHERRQTLNLISLL [TENT5C] came in with a protein stability index under setting [1] of 2.18 ± 0.23 and a protein stability index under setting [2] of 2.31 ± 0.12.

As for VYGVSKETFLSFLEYLYTDSCCPA [RHOBTB3], the protein stability index was found to be 2.16 ± 0.41 under setting [1] and 2.1 ± 0.24 under setting [2].

For VYLHFLSVVTEDGPEPKDKGSLPQ [ZNF232], the protein stability index reads like this: under setting [1], 2.27 ± 0.18; under setting [2], 2.35 ± 0.33.

With VYNANINLFCVLRLVVEFPATGGA [PKD2L1], the protein stability index worked out at 3.05 ± 0.41 under setting [1] and 3.13 ± 0.71 under setting [2].

Regarding WEGFIGGFFSTVVFGFIAAYVLSK [CDS1], the protein stability index was 2.55 ± 0.54 under setting [1] and 3.08 ± 0.15 under setting [2].

As to WEHRTRVGRLYAVYDQAVSIFYDL [SMAD6], the protein stability index under setting [1] was determined as 2.52 ± 0.66 and the protein stability index under setting [2] is 2.59 ± 0.47.

Take WEMIRKIGDTSVSYKYTSRYVLKA [LMNB1]: the protein stability index under setting [1] was determined as 1.98 ± 0.58 and the protein stability index under setting [2] came out at 2.56 ± 0.49.

For WFLSKTEELNKEVASNSELVQSSR [KRT16], the protein stability index came to 3.86 ± 0.39 under setting [1] and 3.96 ± 0.17 under setting [2].

Take WLLTKIDHWNNEKERILLVTDKTL [TPRG1]: the protein stability index turned out to be 2.11 ± 0.41 under setting [1] and 2.16 ± 0.28 under setting [2].

Consider WLSSRAAAIKVNDSVPFHLGWNST [MYORG], for which the protein stability index is, setting by setting: under setting [1], 1.99 ± 0.23; under setting [2], 2.19 ± 0.38.

Regarding WNDSCGEDMEASDYELEDETRPAK [WEE1], the protein stability index worked out at 5.41 ± 0.32 under setting [1] and 5.45 ± 0.17 under setting [2].

WRGNGINVLKIAPESAIKFMAYEQ [SLC25A25]: the protein stability index reads like this: under setting [1], 2.19 ± 0.29; under setting [2], 2.36 ± 0.19.
